Reference: paper PMC6819661

What was measured:
[1] = tested on: GST-NS2A(58-133) (Zika virus); assay: pull-down; conditions: EMSA: 50 mM Tris-HCl pH 7.5, 10 mM 2-mercaptoethanol, 2 mM MgCl2, 50 mM KCl, 15 min at 24 C, 100 pM biotinylated RNA, 0.4% agarose; pull-down: Pierce magnetic …
GST-NS2A (Zika virus) = assay: EMSA; conditions: EMSA: 50 mM Tris-HCl pH 7.5, 10 mM 2-mercaptoethanol, 2 mM MgCl2, 50 mM KCl, 15 min at 24 C, 100 pM biotinylated RNA, 0.4% agarose; pull-down: Pierce magnetic …

## 5' UTR-C66-3' UTR-biotin RNA
[1]
  binding signal (% (reference)): 100
GST-NS2A (Zika virus)
  Kd: 0.0103 µM
